# Source: publication PMC11206880, “The RNA Helicase Ded1 from Yeast Is Associated with the Signal Recognition Particle and Is Regulated by SRP21” (Molecules, 2024)
# Experiments:
# [1] = target: T1, Recombinant Ded1-His (Saccharomyces cerevisiae, UniProt P06634 1-604); assay: co-IP; purified Ded1 (4 µg) incubated with one purified SRP protein (4-6 µg), no RNA, 1x PBS with 2 mM MgCl2, 45 min, 30 °C; recovered with Ded1-specific IgG cross-linked to protein A-Sepharose beads; SDS-PAGE, Coomassie blue; details: both partners purified
# T1 construct: Ded1, DEAD-box RNA helicase of budding yeast, expressed from the pET22b plasmid; also called purified Ded1
# T1 sequence (P06634 whole entry): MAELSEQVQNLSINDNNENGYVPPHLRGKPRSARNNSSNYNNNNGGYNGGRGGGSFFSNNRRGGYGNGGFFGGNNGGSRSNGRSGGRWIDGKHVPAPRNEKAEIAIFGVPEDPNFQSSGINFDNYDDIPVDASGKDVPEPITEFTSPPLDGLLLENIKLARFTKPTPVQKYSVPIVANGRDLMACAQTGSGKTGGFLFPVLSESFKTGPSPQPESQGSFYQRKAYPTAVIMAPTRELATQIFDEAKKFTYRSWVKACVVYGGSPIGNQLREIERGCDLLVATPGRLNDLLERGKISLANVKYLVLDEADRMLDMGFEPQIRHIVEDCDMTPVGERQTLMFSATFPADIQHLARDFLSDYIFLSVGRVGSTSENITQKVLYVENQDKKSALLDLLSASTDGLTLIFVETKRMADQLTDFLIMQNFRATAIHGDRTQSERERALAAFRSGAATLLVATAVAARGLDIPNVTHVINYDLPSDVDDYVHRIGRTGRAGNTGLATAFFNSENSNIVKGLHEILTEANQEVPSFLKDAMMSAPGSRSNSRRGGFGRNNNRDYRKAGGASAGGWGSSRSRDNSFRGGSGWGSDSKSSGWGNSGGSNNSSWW
# [2] = target: T1, Recombinant Ded1-His; assay: co-IP; as a3, but SRP14, SRP21, SRP54 and Sec65 incubated together with Ded1; recovered with Ded1-specific IgG beads; details: both partners purified
binding result [1],binding result [2],Binder
binds,,"His-tagged Sec65 (natural protein, yeast (S. cerevisiae), UniProt P29478 1-273, looked up, Sec65 of yeast, cloned into the XhoI and BamHI sites of pET19b; source: E. coli Rosetta (DE3), purified (Ni-NTA)) MPRLEEIDDFNDIDDLDMELAELDPSLRTPIAPKITPKVVRSQDQENPAFLPGTNNNSNSNNNSSNEKEQLSFINPKTGKVERSEAISKKDLEEVKRFQVLYPCYFDINRSHKEGRRVPKELAVENPLAKTMADAVRELGILCIFEGEKCHPQDFGNPGRIRVLFKENGQLIGAATKFKGGKRQLMKAVGEYMKRHPTTIESLREIPYGPDFDNIEFKKIPRVKGFKMNEIVPLHSPFLMGHPMTKSVYETPKITAAEKSFKPPKNKYKVVRR"
,binds,"His-tagged SRP14 (natural protein, yeast (S. cerevisiae), UniProt P38985 1-146, looked up, SRP14 of yeast, subcloned into the NdeI and XhoI sites of pET22b; source: E. coli Rosetta (DE3), purified (Ni-NTA)) MANTGCLSPGAFLSKVPEFFQTANEKHITVRLTAKRLIEHDPVEGNLEFDSTNHPDYDVSKKASEISVSSRSDREYPLLIRMSYGSHDKKTKCSTVVKASELDQFWQEYSSVFKGGMQNLIKKKKKKSKNGTISKTGKKNKVAKKN"
